In general, Kd refers to the free concentration of one partner at which half of the binding sites on the other are occupied at equilibrium, for simple one-to-one binding. Usually koff stands for the first-order rate constant of dissociation. A word on the kon: it is a measure of how fast the partners come together. As usually defined, the EC50 is the concentration giving half of the maximal effect. What is called IC50 is the midpoint of a concentration-inhibition curve.

Four molecules from patent US20240343803A1 (SHANDONG SIMCERE BIOPHARMACEUTICAL, published 2024) can be followed below.

Read-outs that look alike come from different tables or passages of the source.

For assay [1], the target named is T1, Fusion protein of extracellular domain of human TIGIT and His-tag (human TIGIT ECD-his) (human).
T1 chain: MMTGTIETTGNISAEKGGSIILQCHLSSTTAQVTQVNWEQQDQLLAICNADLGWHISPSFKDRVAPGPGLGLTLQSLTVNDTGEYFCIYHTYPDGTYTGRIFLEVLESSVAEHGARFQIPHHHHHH
Kind of assay: BIAcore. In general terms: In SPR one partner is held on a chip, and binding of the other changes the refractive index at the surface.

Assay [2] has as its target T2, Fusion protein of extracellular domain of human TIGIT and mouse IgG2a Fc fragment (human TIGIT ECD-mFc) (human).
T2 construct: The entry includes the signal peptide (limits not recoverable) and the mouse IgG2a Fc
T2 chain: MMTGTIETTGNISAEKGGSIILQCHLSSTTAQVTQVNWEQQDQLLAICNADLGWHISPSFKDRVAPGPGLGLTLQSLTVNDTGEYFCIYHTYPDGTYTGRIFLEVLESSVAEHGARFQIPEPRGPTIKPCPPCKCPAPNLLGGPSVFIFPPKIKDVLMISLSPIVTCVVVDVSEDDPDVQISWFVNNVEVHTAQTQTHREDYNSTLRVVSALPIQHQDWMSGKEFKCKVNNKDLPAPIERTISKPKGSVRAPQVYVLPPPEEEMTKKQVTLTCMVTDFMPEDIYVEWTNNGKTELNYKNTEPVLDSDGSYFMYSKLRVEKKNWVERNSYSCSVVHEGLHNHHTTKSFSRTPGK
Nature of the assay: ELISA, human TIGIT ECD-mFc. In short, it runs like this:
(§1)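 Antibodies diluted to 13 nM in 1% BSA, then 3-fold serial dilution for 12 concentrations, incubated with milk-blocked plates at 37° C for 1.5-2 h. Bound antibody detected with HRP-labelled secondary antibody (1:5000, 37° C, 1 h) and TMB, stopped with 1M HCl; OD450 nm read.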
In general terms: In an ELISA, binding on a coated surface is turned into a signal by an enzyme label.

Assay [3] has as its target T2, Fusion protein of extracellular domain …. Kind of assay: ELISA, human TIGIT ECD-mFc.
The target in assay [4] is T3, Fusion protein of extracellular domain of cynomolgus monkey TIGIT and mouse IgG2a Fc fragment (cynomolgus … (cynomolgus monkey)).
T3 construct: The entry includes the signal peptide (limits not recoverable) and the mouse IgG2a Fc
Kind of assay: ELISA, cynomolgus monkey TIGIT ECD-mFc. In short, it runs like this: as §1

For assay [5], the target named is T3, Fusion protein of extracellular domain …. Kind of assay: ELISA, cynomolgus monkey TIGIT ECD-mFc. This is another data set of the same source.
Assay [6] has as its target T4, TIGIT on human PBMCs stimulated by SEA (human, UniProt Q495A1 22-244).
T4 construct: whole, on cells
T4 sequence (looked up): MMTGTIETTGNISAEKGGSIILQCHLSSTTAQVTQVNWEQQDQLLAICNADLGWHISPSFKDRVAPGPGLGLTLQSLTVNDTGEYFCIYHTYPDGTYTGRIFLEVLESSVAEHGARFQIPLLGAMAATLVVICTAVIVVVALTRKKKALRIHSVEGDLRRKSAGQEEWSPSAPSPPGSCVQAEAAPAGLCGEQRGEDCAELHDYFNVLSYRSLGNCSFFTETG
Nature of the assay: FACS; binding to SEA-stimulated human PBMC. The protocol:
The fresh human PBMCs (AllCells, PB004-C) were adjusted to a density of 5×10⁵/mL, added with SEA (Toxin Technology, Inc., CAT: AT101) to 100 ng/ml, and cultured at 37° C. with 5% CO₂ for 3 days. The cells were collected 3 days later, washed once with PBS (Hyclone, CAT #SH30256), added with Fc Block (BD, 564220) and then incubated at 4° C. for 10 minutes. After washing twice with PBS, the PBMCs were resuspended to 2×10⁵/50 μL with 1% BSA-PBS. The humanized antibodies were diluted to 80 nM with 1% BSA-PBS (diluted by 3-fold serial dilution for 12 concentration points). The 50 μL cells were then mixed with 50 μL diluted antibodies, and then incubated at 4° C. for 60 minutes. […] After washing twice with PBS, the cell samples were resuspended with 1% BSA-PBS, 100 μL/well and then analyzed by flow cytometry (BD, Canto II).

Assay [7] addresses T2, Fusion protein of extracellular domain …. Kind of assay: FACS; blocking of TIGIT ECD-mFc binding to CHO-K1 CD112 cells. As to the method:
The collected CHO-K1 CD112 cells were washed once with PBS (Hyclone, CAT #SH30256) and resuspended to 2×10⁵/40 μL with 1% BSA-PBS. The anti-TIGIT humanized antibodies were diluted to 600 nM with 1% BSA-PBS (diluted by 2.5-fold serial dilution for 12 concentration points). The TIGIT ECD-mFc was diluted with 1% BSA-PBS to 6 μg/mL. The 40 μL cells were then mixed with 40 μL diluted antibodies and 40 μL diluted TIGIT ECD-mFc, and then incubated at 4° C. for 60 minutes. […] The cell samples were washed twice with PBS, resuspended to 100 μL/well with 1% BSA-PBS and then analyzed by flow cytometry (BD, Canto II). […] (f) The binding activity of anti-TIGIT humanized antibodies to human PBMCs detected by FACS.
On the technique in general: Flow cytometry measures light scatter and fluorescence of single cells or particles in a stream.

T3 sequence (chain, as listed by the source limits assumed): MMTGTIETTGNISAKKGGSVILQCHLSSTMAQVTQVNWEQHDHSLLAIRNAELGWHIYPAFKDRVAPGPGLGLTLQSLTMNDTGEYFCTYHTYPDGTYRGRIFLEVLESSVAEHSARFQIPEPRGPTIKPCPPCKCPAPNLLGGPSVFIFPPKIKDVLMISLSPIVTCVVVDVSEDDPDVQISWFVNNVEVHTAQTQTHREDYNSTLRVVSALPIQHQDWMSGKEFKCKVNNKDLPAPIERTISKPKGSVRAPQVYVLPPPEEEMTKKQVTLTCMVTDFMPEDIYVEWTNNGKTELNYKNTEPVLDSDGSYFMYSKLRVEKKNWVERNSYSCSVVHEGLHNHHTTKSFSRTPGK

B1: TIGIT-070-H1L1 (antibody, V domains shown)
VH: EVQLVQSGAEVKKPGASVKVSCKASGYTFTNYYMHWVRQAPGQRLEWMGRIDPDSGGSKYNEKFKSRVTITVDKSASTAYMELSSLRSEDTAVYYCAREGHYGFYSDYWGQGTTVTVSS
VL: DIQMTQSPSSLSASVGDRVTITCRVSENIYSYLAWYQQKPGKSPKLLIYNAKTLAEGVPSRFSGSGSGTDFTLTISSLQPEDFATYYCQHHYGNPLTFGPGTKVDIK
notes: Humanized anti-TIGIT antibody
On to B1, for which the Kd in assay [1] stood at 0.0583 nM. In assay [1], this molecule came in with a koff of 0.000116 s⁻¹. In assay [1], the kon stood at 1.98e+06 M⁻¹ s⁻¹. For the same molecule, the EC50 in assay [2] worked out at 0.0149 nM; in assay [3], 0.0284 nM; in assay [4] it was 0.0123 nM; in assay [5], 0.0347 nM; in assay [6], 0.121 nM. In assay [7], this molecule displayed an IC50 of 4.3 nM.

B2: TIGIT-002-H4L3 (antibody, V domains shown)
VH: EVQLQESGPGLVKPSETLSLTCAVSGYSITSDSWNWIRQPPGKKLEYIGYISYSGNTYYNPSLKSRVTISRDTSKNQFSLKLSSVTAADTAVYYCARLDFSNYGGAVDYWGQGTTVTVSS
VL: DIVMTQSPDSLAVSLGERATINCKASQNVRTAVAWYQQKPGQSPKLMIYSASYRYTGVPDRFSGSGSGTDFTLTISSLQAEDVAVYYCQQYYTTPWTFGGGTKVEIK
notes: Humanized anti-TIGIT antibody
Molecule B2 registered a Kd in assay [1] of 0.0531 nM. Further, the koff in assay [1] is 0.0003 s⁻¹. Moreover, in assay [1], the kon is 5.65e+06 M⁻¹ s⁻¹. Moreover, the EC50 in assay [2] was determined as 0.0138 nM; in assay [3], 0.037 nM; in assay [4] it was 0.0189 nM; in assay [5], 0.0427 nM; in assay [6], 0.0436 nM. The molecule further had an IC50 in assay [7] of 3.49 nM.

B3: TIGIT-006-H5L3 (antibody, V domains shown)
VH: EVQLQESGPGLVKPSETLSLTCAVSGYSMTSDYWNWIRQPPGKKLEYIGYISYSGRTYYNPSLKSRVTISRDTSKNQFSLKLSSVTAADTAVYYCARGDYSNYGGAMYDWGQGTTVTVSS
VL: DIVMTQSPDSLAVSLGERATINCRASQGVSTTIAWYQQKPGQSPKLLIYSASYRYTGVPRFSGSGSGTDFTLTISSLQAEDVAVYYCQQYYSSPFTFGGGTKVEIK
notes: Humanized anti-TIGIT antibody
On to B3, for which the Kd in assay [1] was found to be 0.0639 nM. For the same molecule, the koff in assay [1] turned out to be 0.00016 s⁻¹. Besides, the kon in assay [1] was 2.51e+06 M⁻¹ s⁻¹. The EC50 was found to be 0.0092 nM in assay [2]; 0.0319 nM in assay [3]; 0.0132 nM in assay [4]; 0.0406 nM in assay [5]; 0.0916 nM in assay [6]. In assay [7], this molecule yielded an IC50 of 4.65 nM.

B4: TIGIT-005-H2L1d (antibody, V domains shown)
VH: EVQLVQSGAEVKKPGASVKVSCKASGYAFTNYLIEWVRQAPGQRLEWMGVINPGSGGTNYKEKFKGRVTITADKSSSTAYMELSSLRSEDTAVYYCARGEYFFFDYWGQGTTVTVSS
VL: DIVMTQSPDSLAVSLGERATINCKASQHVSNAVAWYQHKPGQSPKLLIYSASYRYTGVPDRFSGSGSGTDFTLTISSLQAEDVAVYYCQQHYNTPHTFGGGTKVEIK
notes: Humanized anti-TIGIT antibody with NG-site mutation in VL
In assay [1], B4 gave a Kd of 0.0896 nM. The koff in assay [1] is 0.000361 s⁻¹. The molecule also gave a kon in assay [1] of 4.03e+06 M⁻¹ s⁻¹. For the same molecule, the EC50 is 0.0291 nM in assay [2]; 0.0311 nM in assay [3]; 0.0403 nM in assay [4]; 0.0395 nM in assay [5]; 0.0602 nM in assay [6]. Further, the IC50 in assay [7] stood at 3.49 nM.
